Experimental findings from article doi:10.1101/2021.02.17.431492 (bioRxiv, 2021) are described below.

In the assay the target is batCoV-SHC014 S-2P (spike ectodomain) (Bat SARS-like coronavirus RsSHC014, UniProt U5WLK5, stabilised). Put plainly: ELISA. (An ELISA detects its analyte on a solid surface through an enzyme-linked reagent.)

B1: DH1047 (cross-neutralizing RBD antibody), IgG (antibody, V domains shown)
VH: QVQLVQSGAEVKKPGASVQVSCQASANTFTNHYIHWVRQAPGQGLEWMGIIYPTGGNTIYAQGFQGRVTMTRDTSLNTIYLELSSLRSEDTAVYYCARDVRVDDSWSGYDLLSGGTYFDYWGQGTLVTVSS
VL: not shown
For the molecule B1, the binding result is listed as “binds”.
